These results are taken from PMC11672978, “Assessing the Impact of the Leader Peptide in Protease Inhibition by the Microviridin Family of RiPPs” (Biomedicines, 2024).

The target of test [1] is Elastase.
Test [2] has as its target Elastase. This is another data set of the same source.
The target in test [3] is elastase. The conditions noted are these: mature natural product without leader peptide; read-out: previously reported IC50 for elastase inhibition; cited from earlier work. The text has this:
Although, the IC50 value we measured is certainly an overestimation of the actual IC50 as it is less than half the concentration of the elastase used in the assay.

Substance “MdnA Δ2 (bicyclic microviridin B precursor peptide modified by MdnC only, leader peptide present, N-terminal His-tag)” registered an IC50 of inhibition of the hydrolysis of the fluorogenic substrate MeOSuc-AAPV-AMC by elastase (20 nM elastase, 10 nM-10,000 nM MdnA Δ2, 100 mM HEPES pH 8.0, 10% DMSO, room temperature) in the test with Elastase [1] of 840 nM. “MdnA Δ3 (tricyclic, fully modified microviridin B precursor peptide with the leader peptide present, N-terminal His-tag)” showed an IC50 of inhibition of the hydrolysis of the fluorogenic substrate MeOSuc-AAPV-AMC by elastase (20 nM elastase, 0.1 nM-100 nM MdnA Δ3, 100 mM HEPES pH 8.0, 10% DMSO, room temperature) with Elastase [2] of 8.3 nM. With microviridin B, on elastase [3], the IC50 (as a rule, the midpoint of a concentration-inhibition curve) is 25 nM.
